Measured values: publication PMC7949130
Blank lines part the entries; values can stand above or below the binder they belong to.

Key:
[1] = target: native sulfated human cationic trypsin purified from pancreatic juice (human); assay: discontinuous association rate assay (residual trypsin activity); 50 pM trypsin mixed with 500 pM SPINK1, 0.1 M Tris-HCl (pH 8.0), 150 mM NaCl, 1 mM CaCl2, 0.05% Tween 20, 23 °C; kon from the pseudo-first-order rate constant divided by the inhibitor concentration
[2] = target: nonsulfated human cationic trypsin purified from E. coli (human); assay: as above
[3] = target: native sulfated human cationic trypsin purified from pancreatic juice (human); assay: equilibrium binding assay (free trypsin activity on a fluorogenic substrate); fixed trypsin incubated with increasing SPINK1, 0.2 ml, 0.1 M Tris-HCl (pH 8.0), 150 mM NaCl, 1 mM CaCl2, 0.05% Tween 20, 15 h; free trypsin measured with Z-Gly-Pro-Arg-AMC; apparent KD, global fit of at least three experiments
[4] = target: native sulfated human cationic trypsin purified from pancreatic juice (human); assay: as above; remark: listed apart in the source
[5] = target: nonsulfated human cationic trypsin purified from E. coli (human); assay: as above
[6] = target: sulfated human cationic trypsin purified from the conditioned medium of transfected HEK 293T cells (human); assay: as above
[7] = target: nonsulfated human cationic trypsin purified from the conditioned medium of transfected HEK 293T cells (human); assay: as above
[8] = target: native sulfated human cationic trypsin purified from pancreatic juice (human); assay: dissociation rate assay (recovery of trypsin activity after dilution of the complex); complex of 11 nM SPINK1 and 10 nM trypsin formed for 1 h at 23 °C, diluted to 50-200 pM with 0.6 mM Z-Gly-Pro-Arg-AMC, 0.1 M Tris-HCl (pH 8.0), 150 mM NaCl, 1 mM CaCl2, 0.05% Tween 20, room temperature, followed for 1 h
[9] = target: nonsulfated human cationic trypsin purified from E. coli (human); assay: as above
[10] = target: native sulfated human cationic trypsin purified from pancreatic juice (human); assay: KD calculated from the rate constants (association and dissociation rate assays); KD(calc): equilibrium dissociation constant calculated from kon and koff of the activity-based rate assays
[11] = target: nonsulfated human cationic trypsin purified from E. coli (human); assay: as above
[12] = target: native sulfated human cationic trypsin purified from pancreatic juice (human); assay: equilibrium binding assay (free trypsin activity on a fluorogenic substrate); as the equilibrium assay but K41N SPINK1 incubated with trypsin for 1 h; 0.1 M Tris-HCl (pH 8.0), 150 mM NaCl, 1 mM CaCl2, 0.05% Tween 20; apparent KD
[13] = target: nonsulfated human cationic trypsin purified from E. coli (human); assay: equilibrium binding assay (free trypsin activity on a fluorogenic substrate); fixed trypsin incubated with increasing SPINK1, 0.2 ml, 0.1 M Tris-HCl (pH 8.0), 150 mM NaCl, 1 mM CaCl2, 0.05% Tween 20, 15 h; free trypsin measured with Z-Gly-Pro-Arg-AMC; apparent KD, global fit of at least three experiments; remark: listed apart in the source

B1: serine protease inhibitor Kazal type 1 (SPINK1), wildtype, C-terminal 10His tag (natural protein)
chain: DSLGREAKCYNELNGCTKIYDPVCGTDGNTYPNECVLCFENRKRQTSILIQKSGPC
- kon [1]: 3.5e+06 M⁻¹ s⁻¹
- kon [2]: 3e+06 M⁻¹ s⁻¹
- Kd [3]: 0.0674 nM
- Kd [4]: 0.0622 nM
- Kd [5]: 0.0011 nM
- Kd [6]: 0.0402 nM
- Kd [7]: 0.0044 nM
- koff [8]: 5.48e-05 s⁻¹
- koff [9]: 8.2e-06 s⁻¹
- Kd [10]: 0.0158 nM
- Kd [11]: 0.0027 nM

B3: SPINK1 variant N37S, C-terminal 10His tag (natural protein)
chain: DSLGREAKCYNELSGCTKIYDPVCGTDGNTYPNECVLCFENRKRQTSILIQKSGPC
- Kd [4]: 0.0869 nM

B5: SPINK1 variant K41N, C-terminal 10His tag (natural protein)
chain: DSLGREAKCYNELNGCTNIYDPVCGTDGNTYPNECVLCFENRKRQTSILIQKSGPC
- Kd [12]: 1290 nM

B7: SPINK1 variant I42M, C-terminal 10His tag (natural protein)
chain: DSLGREAKCYNELNGCTKMYDPVCGTDGNTYPNECVLCFENRKRQTSILIQKSGPC
- Kd [4]: 0.2 nM

B8: SPINK1 mutant Y43R (natural protein)
chain: DSLGREAKCYNELNGCTKIRDPVCGTDGNTYPNECVLCFENRKRQTSILIQKSGPC
- Kd [3]: 0.0271 nM
- Kd [13]: 0.104 nM

B10: SPINK1 mutant Y43A (natural protein)
chain: DSLGREAKCYNELNGCTKIADPVCGTDGNTYPNECVLCFENRKRQTSILIQKSGPC
- Kd [3]: 0.0622 nM
- Kd [13]: 0.0203 nM

Further binders by falling Kd [4], results first:

- Kd [4]: 0.101 nM
B4: SPINK1 variant P55S, C-terminal 10His tag (natural protein)
chain: DSLGREAKCYNELNGCTKIYDPVCGTDGNTYSNECVLCFENRKRQTSILIQKSGPC

- Kd [4]: 0.068 nM
B6: SPINK1 variant Q68R, C-terminal 10His tag (natural protein)
chain: DSLGREAKCYNELNGCTKIYDPVCGTDGNTYPNECVLCFENRKRRTSILIQKSGPC

- Kd [4]: 0.0592 nM
B2: SPINK1 variant R65Q, C-terminal 10His tag (natural protein)
chain: DSLGREAKCYNELNGCTKIYDPVCGTDGNTYPNECVLCFENQKRQTSILIQKSGPC

- kon [1]: 2.7e+06 M⁻¹ s⁻¹
- kon [2]: 5.3e+06 M⁻¹ s⁻¹
- Kd [4]: 0.0323 nM
- Kd [5]: 0.0015 nM
- Kd [6]: 0.0375 nM
- Kd [7]: 0.0047 nM
- koff [8]: 4.5e-05 s⁻¹
- koff [9]: 7e-06 s⁻¹
- Kd [10]: 0.0164 nM
- Kd [11]: 0.0013 nM
B9: SPINK1 variant N34S, C-terminal 10His tag (natural protein)
chain: DSLGREAKCYSELNGCTKIYDPVCGTDGNTYPNECVLCFENRKRQTSILIQKSGPC
